Data taken from publication PMC7334588.

Biological target: RSC chromatin remodeling complex (S. cerevisiae) (UniProt P32597)
Assay: BLI

UniProt P32597, sequence (P32597 whole entry, looked up, one chain of several): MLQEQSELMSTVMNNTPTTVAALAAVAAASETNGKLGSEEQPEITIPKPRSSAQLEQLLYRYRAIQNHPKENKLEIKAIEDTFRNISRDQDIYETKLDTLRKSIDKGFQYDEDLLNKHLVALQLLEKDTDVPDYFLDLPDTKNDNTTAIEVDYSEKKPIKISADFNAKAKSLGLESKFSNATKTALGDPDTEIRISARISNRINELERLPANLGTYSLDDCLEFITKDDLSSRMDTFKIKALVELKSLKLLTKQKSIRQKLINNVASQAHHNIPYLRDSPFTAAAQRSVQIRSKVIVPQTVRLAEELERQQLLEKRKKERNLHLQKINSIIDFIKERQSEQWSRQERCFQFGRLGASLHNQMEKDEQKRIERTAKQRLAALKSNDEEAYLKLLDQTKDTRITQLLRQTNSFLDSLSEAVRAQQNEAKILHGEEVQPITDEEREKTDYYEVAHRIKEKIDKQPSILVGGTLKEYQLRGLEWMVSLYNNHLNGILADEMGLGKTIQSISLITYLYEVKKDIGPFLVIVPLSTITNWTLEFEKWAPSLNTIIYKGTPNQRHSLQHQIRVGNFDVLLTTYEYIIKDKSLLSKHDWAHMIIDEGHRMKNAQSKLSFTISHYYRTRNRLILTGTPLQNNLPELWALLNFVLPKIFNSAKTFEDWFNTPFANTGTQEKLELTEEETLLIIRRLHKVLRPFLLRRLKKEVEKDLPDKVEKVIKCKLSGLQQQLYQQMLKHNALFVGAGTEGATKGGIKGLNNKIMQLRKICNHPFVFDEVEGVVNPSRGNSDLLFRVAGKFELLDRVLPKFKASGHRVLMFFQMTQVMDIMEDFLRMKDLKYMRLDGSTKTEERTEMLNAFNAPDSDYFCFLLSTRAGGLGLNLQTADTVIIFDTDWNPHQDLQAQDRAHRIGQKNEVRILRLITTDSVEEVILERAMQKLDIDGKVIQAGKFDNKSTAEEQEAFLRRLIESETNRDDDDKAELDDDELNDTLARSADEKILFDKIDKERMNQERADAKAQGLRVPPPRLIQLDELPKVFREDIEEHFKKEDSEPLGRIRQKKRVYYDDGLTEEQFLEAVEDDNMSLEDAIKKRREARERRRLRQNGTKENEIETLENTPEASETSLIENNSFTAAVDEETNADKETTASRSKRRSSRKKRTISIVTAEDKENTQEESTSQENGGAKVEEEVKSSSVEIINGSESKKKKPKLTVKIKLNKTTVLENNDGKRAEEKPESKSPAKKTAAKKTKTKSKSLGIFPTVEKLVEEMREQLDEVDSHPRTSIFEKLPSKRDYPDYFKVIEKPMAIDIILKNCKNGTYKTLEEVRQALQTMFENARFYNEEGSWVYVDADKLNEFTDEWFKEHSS

fold higher affinity than for unmodified nucleosomes: 2 fold
Substance: SUMOylated nucleosome with an in-frame fusion of SUMO to H2B (from UniProt P02281 6-126) (complex)
